This assay concerns the target T1, 3xFlag::CYB-3 (in situ-tagged cyclin B3) (C. elegans, UniProt Q10654 1-385).
T1 sequence: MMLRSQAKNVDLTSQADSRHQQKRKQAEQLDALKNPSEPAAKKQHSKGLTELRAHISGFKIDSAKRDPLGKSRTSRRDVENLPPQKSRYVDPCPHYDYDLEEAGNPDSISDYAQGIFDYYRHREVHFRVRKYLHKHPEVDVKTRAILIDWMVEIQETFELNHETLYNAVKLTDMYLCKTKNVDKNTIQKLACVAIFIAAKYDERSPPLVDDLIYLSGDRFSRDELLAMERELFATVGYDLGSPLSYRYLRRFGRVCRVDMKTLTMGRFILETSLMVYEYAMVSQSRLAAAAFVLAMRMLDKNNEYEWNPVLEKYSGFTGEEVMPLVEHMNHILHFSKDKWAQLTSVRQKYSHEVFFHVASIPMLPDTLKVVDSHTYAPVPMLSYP
The assay can be described thus: co-IP.

B1: CDK-1 phosphorylated at Y33 (pY33 CDK-1), endogenous (enzyme)
chain: not shown
modifications: phosphotyrosine at 33 (pY33)
Take B1: the “amount of pY33 CDK-1 bound relative to CYB-1” value was about 1.3 fold.

B2: CDK-1 (C. elegans Cdk1), endogenous (enzyme)
chain: not shown
In the case of B2, the “amount of CDK-1 bound relative to CYB-1” value was about 1.3 times.

B3: CDK-1 phosphorylated at T179 (pT179 CDK-1), endogenous (enzyme)
chain: not shown
modifications: phosphothreonine at 179 (pT179)
Consider B3, for which the “amount of pT179 CDK-1 bound relative to CYB-1” value is about 1.3 fold.

The values above are taken from article PMC11303871 (The Journal of Cell Biology, 2024).
